Drawing on patent US20260224676A1 (published 2026), this text covers Kd for 1 molecule.

The target of the assay is Tau preformed fibrils (PFF) (UniProt P10636 2-758). In words: BLI. (Biolayer interferometry detects binding as a change in optical thickness at a sensor tip.)

Usually Kd stands for the equilibrium constant for the complex coming apart. A higher Kd goes with weaker binding.

B1: Bepranemab (antibody, V domains shown)
VH: EVQLQESGPGLVKPSETLSLTCTVSGFSLTSNDIAWIRQPPGKGLEWMGTIWTDGSTNYNTAVQSRVTISVDTSKNQFSLKLSSVTAADTAVYYCARHRLYYGAFDYWGQGTMVTVSS
VL: DIVMTQTPLSLSVTPGQPASISCRSSQSLEYSDGYTYLEWYLQKPGQSPQLLIYEVSNRFSGVPDRFSGSGSGTDFTLKISRVEAEDVGVYYCFQATHNPYTFGQGTKLEIK
As for B1, the affinity, expressed as Kd, was 1.32 nM.
